Data reported in article PMC7851689, “Expanding the Enzyme Repertoire for Sugar Nucleotide Epimerization: the CDP-Tyvelose 2-Epimerase from Thermodesulfatator atlanticus for Glucose/Mannose Interconversion” (Applied and Environmental Microbiology, 2021).

B1: TaCPa2E (Thermodesulfatator atlanticus) (protein)
chain: MKYLITGGCGFLGSNLASEVLRKREELIIFDNLYRIGSYENLEWLKQQGDFRFVHGDIRNREDIEKVIKEEKPDVIFHLAGQVAMTTSIENPRLDFEVNALGTFNLLDAVRKYSPESIIIYSSTNKVYGDLGWVRYEETETRYIAPDFPNGFPESIPLDFHSPYGCSKGAADQYMLDFCRIYGIKTVVFRHSSMYGGRQFATYDQGWIGWFCLKAIEIKKGLLKEPFTIHGNGKQVRDVLYADDMIELYFKTIENIEKAKGEAFNIGGGMENSLSLLELFSLLEKELDIKMRYKKLPWRESDQKIFVADIRKAQKLIGWQPKVSKYNGIQKMLEWIKKLV

Columns and labels:
[1] = target: CDP-tyvelose 2-epimerase-like enzyme from Thermodesulfatator atlanticus (TaCPa2E) (Thermodesulfatator atlanticus); experiment: SEC; gel filtration of the purified C-terminally His-tagged protein; conditions not shown (Fig. S3 and S4, supplemental material)
purified protein [2] = substrate: Nc1ccn([C@@H]2O[C@H](COP(=O)(O)OP(=O)(O)O[C@H]3O[C@H](CO)[C@@H](O)[C@H](O)[C@H]3O)[C@@H](O)[C@H]2O)c(=O)n1; experiment: purified protein; conditions: pH 7.5; 60.0 °C
purified protein [3] = substrate: Nc1ccn([C@@H]2O[C@H](COP(=O)(O)OP(=O)(O)O[C@H]3O[C@H](CO)[C@@H](O)[C@H](O)[C@@H]3O)[C@@H](O)[C@H]2O)c(=O)n1; experiment: purified protein; conditions: pH 7.5; 60.0 °C

Molecule	stoichiometry N [1]	Km (purified protein [2]) [µM]	Km (purified protein [3]) [µM]
CDP-tyvelose 2-epimerase-like enzyme from Thermodesulfatator atlanticus (TaCPa2E)	2	–	–
B1	–	320 ± 20	310 ± 10
